Blank lines part the entries; values can stand above or below the binder they belong to.
What was measured:
[1] = target: T1, human DR3 (full length, on cells) (human, UniProt Q93038 25-417); experiment: cell-based or functional assay
T1 sequence: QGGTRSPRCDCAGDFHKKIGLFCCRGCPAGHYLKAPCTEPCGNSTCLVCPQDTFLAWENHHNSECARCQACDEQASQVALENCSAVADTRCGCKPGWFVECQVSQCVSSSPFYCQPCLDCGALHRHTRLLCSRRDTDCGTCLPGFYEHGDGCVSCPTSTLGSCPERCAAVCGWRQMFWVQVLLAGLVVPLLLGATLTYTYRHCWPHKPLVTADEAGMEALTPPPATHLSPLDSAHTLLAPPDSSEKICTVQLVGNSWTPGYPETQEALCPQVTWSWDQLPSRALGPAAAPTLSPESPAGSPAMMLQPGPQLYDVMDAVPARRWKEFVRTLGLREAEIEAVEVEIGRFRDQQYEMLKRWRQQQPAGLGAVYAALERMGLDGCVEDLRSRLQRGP

DR3 (CRD1)-Fc = target: T2, DR3 (CRD1)-Fc (human); experiment: SPR
T2 construct: Amino acids 25-71 of DR3 fused to the Fc domain of human IgG4; purified to exclude oligomers (mainly dimeric)
Text: The extracellular moiety of DR3 is located at the aminoterminal portion of DR3 and is comprised of four TNF receptor cysteine-rich domains. Several fusion proteins were expressed and purified which contained parts of the extracellular domain of DR3 of increasing length fused to the Fc domain of a human IgG4. The DR3 proteins used for SPR analysis had been purified to exclude oligomerized material. These proteins were immobilized to a CM5 sensor chip using amine coupling chemistry. Binding of anti-DR3 antibodies termed 0070, 0072, 0073 and 0076, to the different DR3-Fc fusion proteins was tested by means of plasmon surface binding measurements on a Biacore T100 instrument (GE Healthcare). All of these antibodies inhibit binding of TL1A to DR3 in a FACS assay. These 4 antibodies bound to recombinant DR3 (CRD1)-Fc protein that contained only the aminoterminal CRD (SEQ ID NO:2) comprised of amino acids 25-71 of DR3.
The same analysis was also performed for some of the Fab fragments.

[2] = target: T3, marmoset DR3 (transiently expressed on HEK293 cells) (marmoset, UniProt U3ENN5 27-418); experiment: cell-based or functional assay
T3 sequence: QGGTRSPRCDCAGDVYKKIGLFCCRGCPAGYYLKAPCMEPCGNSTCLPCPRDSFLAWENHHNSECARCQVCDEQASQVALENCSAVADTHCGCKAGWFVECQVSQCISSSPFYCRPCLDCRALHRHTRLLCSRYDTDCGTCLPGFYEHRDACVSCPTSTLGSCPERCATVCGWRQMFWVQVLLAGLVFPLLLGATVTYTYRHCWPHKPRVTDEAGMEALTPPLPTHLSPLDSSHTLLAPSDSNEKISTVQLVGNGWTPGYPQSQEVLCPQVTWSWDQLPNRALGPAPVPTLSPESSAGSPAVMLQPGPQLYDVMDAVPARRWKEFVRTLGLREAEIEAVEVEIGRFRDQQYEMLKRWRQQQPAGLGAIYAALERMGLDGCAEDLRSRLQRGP

[3] = target: T1, human DR3 (full length, on cells); experiment: cell-based or functional assay; remark: listed apart in the source
[4] = target: T4, cynomolgus DR3 (on HEK293 reporter cells) (cynomolgus, UniProt A0A2K5WJ09 98-464); experiment: cell-based or functional assay
T4 sequence: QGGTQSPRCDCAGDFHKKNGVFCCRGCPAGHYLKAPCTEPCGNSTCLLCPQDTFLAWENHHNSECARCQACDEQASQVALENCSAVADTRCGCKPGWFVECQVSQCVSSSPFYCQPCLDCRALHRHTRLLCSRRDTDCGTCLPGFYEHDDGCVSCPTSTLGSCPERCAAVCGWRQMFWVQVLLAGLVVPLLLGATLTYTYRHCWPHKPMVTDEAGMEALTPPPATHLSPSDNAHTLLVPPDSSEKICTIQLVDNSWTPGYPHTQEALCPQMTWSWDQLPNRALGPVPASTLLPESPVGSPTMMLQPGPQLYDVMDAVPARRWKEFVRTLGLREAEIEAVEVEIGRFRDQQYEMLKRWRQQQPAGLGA

[5] = target: T4, cynomolgus DR3 (on HEK293 reporter …); experiment: cell-based or functional assay; remark: listed apart in the source
[6] = target: T5, human DR3 with the death domain deleted (ΔM339-P417 of SEQ ID NO:1), expressed on CHOK1SV cells (human, UniProt Q93038 25-338); experiment: flow cytometry competition: Fab vs TL1A on hDR3-expressing CHO cells
T5 construct: also called truncated DR3; hDR3 expressing CHO cells
T5 sequence: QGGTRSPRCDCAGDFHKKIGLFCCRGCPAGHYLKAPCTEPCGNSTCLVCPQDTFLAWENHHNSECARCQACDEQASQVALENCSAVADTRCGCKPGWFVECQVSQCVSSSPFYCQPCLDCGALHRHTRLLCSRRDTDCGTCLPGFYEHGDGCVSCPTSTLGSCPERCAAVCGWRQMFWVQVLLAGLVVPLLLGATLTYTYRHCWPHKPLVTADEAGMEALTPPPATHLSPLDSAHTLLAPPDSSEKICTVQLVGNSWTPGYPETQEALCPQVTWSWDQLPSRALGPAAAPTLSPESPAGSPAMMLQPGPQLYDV

[7] = target: T1, human DR3 (full length, on cells); experiment: cell-based or functional assay; remark: listed apart in the source
DR3 (ECD)-Fc = target: T6, DR3 (ECD)-Fc (human); experiment: HX-MS with hDR3 ECD-Fc
T6 construct: ECD of DR3, a linker with a TEV cleavage site and the Fc part of human IgG4; dimeric fraction used; also called DR3-Fc; hDR3-Fc
Procedure: The Leap robot was equipped with two temperature controlled stacks maintained at 20° C. for buffer storage and HX reactions and maintained at 2° C. for storage of protein and quench solution, respectively. The Waters HDX system furthermore contained a temperature controlled chamber holding the pre- and analytical columns, and the LC tubing and switching valves at 1° C. A separately temperature controlled chamber holds the pepsin column at 25° C. […] The resulting peptides were trapped and desalted on a VanGuard pre-column BEH C18 1.7 μm (2.1×5 mm (Waters Inc.)). Subsequently, the valves were switched to place the pre-column inline with the analytical column, UPLC-BEH C18 1.7 μm (1×100 mm (Waters Inc.)), and the peptides separated using a 9 min gradient of 10-40% B delivered at 200 μl/min from the nanoAQUITY UPLC system (Waters Inc.). The mobile phases consisted of A: 0.1% formic acid and B: 0.1% formic acid in CH₃CN. The ESI MS data, and the separate elevated energy (MS^E) experiments were acquired in positive ion mode using a Synapt G2 mass spectrometer (Waters Inc.).
All HX reactions were carried out at 20° C. and contained […] hDR3 in the absence or presence of […] Fab thus giving a 5 fold molar excess of Fab. […]

[8] = target: T5, human DR3 with the death domain deleted …; experiment: FACS on DR3 expressing cells; competitor Mab 0121
[9] = target: T5, human DR3 with the death domain deleted …; experiment: FACS on DR3 expressing cells; competitor Mab 0107

IC50, TNFalpha inhibition, TL1A-activated CD4+ T cells, donor 1 [1]: 301 pM | IC50, TNFalpha inhibition, TL1A-activated CD4+ T cells, donor 2 [1]: 320 pM | IC50, TNFalpha inhibition, average (n 22) [1]: 208 pM | max % inhibition of TNFalpha, donor 1 [1]: 83.5% | max % inhibition of TNFalpha, donor 2 [1]: 75.9% | binding result (DR3 (CRD1)-Fc): binds | IC50 at 40 ng/ml TL1A, transient reporter HEK293 [2]: 323 pM | IC50 at 40 ng/ml TL1A, transient reporter HEK293 [3]: 330 pM | IC50 at 40 ng/ml TL1A, transient reporter HEK293 [4]: 99000 pM | IC50 at 40 ng/ml TL1A, Lyda20 reporter cells [5]: 236000 pM | IC50 at 40 ng/ml TL1A, I5 reporter cells [7]: 188 pM
B1: 0123 (chimeric Fab of 27F44, human IgG4 constant domain, hinge Cys->Ser) (Fab, V domains shown)
VH: EVKLVESGGGLVKPGGSLKLSCSASGFAFSNYDMSWVRQTPEKRLEWVAAFSSDGYTFYPDSLKGRFTISRDNARNTLYLQMSSLGSEDTALYCCARHADYANYPVMDYWGQGTSVTVSS
VL: DIVLAQSPASLLVSLGQRATISCRASKSVSTSGYSYMHWYQQKPGQPPKLLIYLASNLESGVPARFSGSGSGTDFTLNIHPVEEEDAATYYCQHSRELPLTFGAGTMLELKR
notes: murine variable domains, human IgG4 constant domain (IgG4-Ser)
IC50 [6]: 443 pM | max percentage inhibition [6]: 80%

binding result (DR3 (ECD)-Fc): binds | max % inhibition of TNFalpha, donor 1 [1]: 9.5% | max % inhibition of TNFalpha, donor 2 [1]: -8.5%
B2: 0148 (chimeric Fab of 5F13, human IgG4 constant domain, hinge Cys->Ser) (Fab, V domains shown)
VH: EVQLVESGGGLVKPGGSLKFSCAVSGFTFSSYVMSWVRQTPEKRLEWVAAISSDSTYTYYLDSVKGRFTISRDNAKNTLYLQMSSLRSEDTAMYYCARQTRSDAMDYWGQGTSVTVSS
VL: DIVLTQSPASLAVSLGQRATISCRASESVDNYGNSFMHWYQQKPGQPPKLLIYRASNLESGIPARFSGSGSRTDFTLTINPVEADDVAIYYCQQSNEDPLTFGAGTKLELKR
notes: IgG4-Ser, chimeric
molar ratio Mab/Fab from which the Fab inhibits fully [8]: 3 Fab per Mab (molar ratio Mab/Fab 1:n) | molar ratio Mab/Fab from which the Fab inhibits [9]: 100 Fab per Mab (molar ratio Mab/Fab 1:n) | IC50 [6]: 9220 pM | max percentage inhibition [6]: 33%

— patent publication US20170305994A1 (Novo Nordisk, published 2017)
